The results in this text go back to patent US11653679B2, “High-purity steviol glycosides” (PureCircle Sdn Bhd, priority 2014, dated 2023).

A short description of the data set: Directed evolution of UGT76G1, Rebaudioside D to Rebaudioside M, round 1 (Example 26). Format: biochemical. Conditions: 100 μL fresh lysate, 0.5 mM Rebaudioside D, 30° C., pH 7.2. The gist of the method: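 Conversion and initial rate were determined by HPLC with CAD detection on samples taken at 2, 4, 7 and 24 h. Reactions ran at 30 °C in 50 mM phosphate buffer pH 7.2 with lysate, Rebaudioside D (0.5 mM), UDP-glucose (2.5 mM) and MgCl2 (3 mM).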

B1: UGT76G1var69: UGT76G1 variant, mutations S274G_I295T_I335V_L379A (protein, UniProt Q6VAB4 1-458, looked up, variant S274G I295T I335V L379A)
UDP-glycosyltransferase 76G1: MENKTETTVRRRRRIILFPVPFQGHINPILQLANVLYSKGFSITIFHTNFNKPKTSNYPHFTFRFILDNDPQDERISNLPTHGPLAGMRIPIINEHGADELRRELELLMLASEEDEEVSCLITDALWYFAQSVADSLNLRRLVLMTSSLFNFHAHVSLPQFDELGYLDPDDKTRLEEQASGFPMLKVKDIKSAYSNWQILKEILGKMIKQTKASSGVIWNSFKELEESELETVIREIPAPSFLIPLPKHLTASSSSLLDHDRTVFQWLDQQPPGSVLYVSFGSTSEVDEKDFLETARGLVDSKQSFLWVVRPGFVKGSTWVEPLPDGFLGERGRVVKWVPQQEVLAHGAIGAFWTHSGWNSTLESVCEGVPMIFSDFGADQPLNARYMSDVLKVGVYLENGWERGEIANAIRRVMVDEEGEYIRQNARVLKQKADVSLMKGGSSYESLESLVSYISSL
Molecule B1 showed an initial rate of 8.3E+06 Reb M area/min.

B2: UGT76G1var72: UGT76G1 variant, mutations T284L_D301N_K303G_S375R (protein, UniProt Q6VAB4 1-458, looked up, variant T284L D301N K303G S375R)
UDP-glycosyltransferase 76G1: MENKTETTVRRRRRIILFPVPFQGHINPILQLANVLYSKGFSITIFHTNFNKPKTSNYPHFTFRFILDNDPQDERISNLPTHGPLAGMRIPIINEHGADELRRELELLMLASEEDEEVSCLITDALWYFAQSVADSLNLRRLVLMTSSLFNFHAHVSLPQFDELGYLDPDDKTRLEEQASGFPMLKVKDIKSAYSNWQILKEILGKMIKQTKASSGVIWNSFKELEESELETVIREIPAPSFLIPLPKHLTASSSSLLDHDRTVFQWLDQQPPSSVLYVSFGSLSEVDEKDFLEIARGLVNSGQSFLWVVRPGFVKGSTWVEPLPDGFLGERGRIVKWVPQQEVLAHGAIGAFWTHSGWNSTLESVCEGVPMIFRDFGLDQPLNARYMSDVLKVGVYLENGWERGEIANAIRRVMVDEEGEYIRQNARVLKQKADVSLMKGGSSYESLESLVSYISSL
Regarding B2, the initial rate worked out at 9.1E+06 Reb M area/min.

B3: UGT76G1var77: UGT76G1 variant, mutations A239V_F265I_I295T_D301N_K393G (protein, UniProt Q6VAB4 1-458, looked up, variant A239V F265I I295T D301N K393G)
UDP-glycosyltransferase 76G1: MENKTETTVRRRRRIILFPVPFQGHINPILQLANVLYSKGFSITIFHTNFNKPKTSNYPHFTFRFILDNDPQDERISNLPTHGPLAGMRIPIINEHGADELRRELELLMLASEEDEEVSCLITDALWYFAQSVADSLNLRRLVLMTSSLFNFHAHVSLPQFDELGYLDPDDKTRLEEQASGFPMLKVKDIKSAYSNWQILKEILGKMIKQTKASSGVIWNSFKELEESELETVIREIPVPSFLIPLPKHLTASSSSLLDHDRTVIQWLDQQPPSSVLYVSFGSTSEVDEKDFLETARGLVNSKQSFLWVVRPGFVKGSTWVEPLPDGFLGERGRIVKWVPQQEVLAHGAIGAFWTHSGWNSTLESVCEGVPMIFSDFGLDQPLNARYMSDVLGVGVYLENGWERGEIANAIRRVMVDEEGEYIRQNARVLKQKADVSLMKGGSSYESLESLVSYISSL
Consider B3, for which the “conversion Reb D to Reb M after 24 h” value is 1.9% and the initial rate came to 4.4E+05 Reb M area/min.

B4: UGT76G1var70: UGT76G1 variant, mutations E224A_I295T_V300A_G348P (protein, UniProt Q6VAB4 1-458, looked up, variant E224A I295T V300A G348P)
UDP-glycosyltransferase 76G1: MENKTETTVRRRRRIILFPVPFQGHINPILQLANVLYSKGFSITIFHTNFNKPKTSNYPHFTFRFILDNDPQDERISNLPTHGPLAGMRIPIINEHGADELRRELELLMLASEEDEEVSCLITDALWYFAQSVADSLNLRRLVLMTSSLFNFHAHVSLPQFDELGYLDPDDKTRLEEQASGFPMLKVKDIKSAYSNWQILKEILGKMIKQTKASSGVIWNSFKALEESELETVIREIPAPSFLIPLPKHLTASSSSLLDHDRTVFQWLDQQPPSSVLYVSFGSTSEVDEKDFLETARGLADSKQSFLWVVRPGFVKGSTWVEPLPDGFLGERGRIVKWVPQQEVLAHPAIGAFWTHSGWNSTLESVCEGVPMIFSDFGLDQPLNARYMSDVLKVGVYLENGWERGEIANAIRRVMVDEEGEYIRQNARVLKQKADVSLMKGGSSYESLESLVSYISSL
As for B4, the “conversion Reb D to Reb M after 24 h” value stood at 24.0% and the initial rate came out at 8.4E+06 Reb M area/min.

B5: UGT76G1var76: UGT76G1 variant, mutations F22Y_A239I_L246F_I295M_R334K (protein, UniProt Q6VAB4 1-458, looked up, variant F22Y A239I L246F I295M R334K)
UDP-glycosyltransferase 76G1: MENKTETTVRRRRRIILFPVPYQGHINPILQLANVLYSKGFSITIFHTNFNKPKTSNYPHFTFRFILDNDPQDERISNLPTHGPLAGMRIPIINEHGADELRRELELLMLASEEDEEVSCLITDALWYFAQSVADSLNLRRLVLMTSSLFNFHAHVSLPQFDELGYLDPDDKTRLEEQASGFPMLKVKDIKSAYSNWQILKEILGKMIKQTKASSGVIWNSFKELEESELETVIREIPIPSFLIPFPKHLTASSSSLLDHDRTVFQWLDQQPPSSVLYVSFGSTSEVDEKDFLEMARGLVDSKQSFLWVVRPGFVKGSTWVEPLPDGFLGERGKIVKWVPQQEVLAHGAIGAFWTHSGWNSTLESVCEGVPMIFSDFGLDQPLNARYMSDVLKVGVYLENGWERGEIANAIRRVMVDEEGEYIRQNARVLKQKADVSLMKGGSSYESLESLVSYISSL
Take B5: the “conversion Reb D to Reb M after 24 h” value is listed as 2.6% and the initial rate amounted to 7.2E+05 Reb M area/min.

B6: UGT76G1var74: UGT76G1 variant, mutations I295T_I373L_S375R_Y397Q_Q432E (protein, UniProt Q6VAB4 1-458, looked up, variant I295T I373L S375R Y397Q Q432E)
UDP-glycosyltransferase 76G1: MENKTETTVRRRRRIILFPVPFQGHINPILQLANVLYSKGFSITIFHTNFNKPKTSNYPHFTFRFILDNDPQDERISNLPTHGPLAGMRIPIINEHGADELRRELELLMLASEEDEEVSCLITDALWYFAQSVADSLNLRRLVLMTSSLFNFHAHVSLPQFDELGYLDPDDKTRLEEQASGFPMLKVKDIKSAYSNWQILKEILGKMIKQTKASSGVIWNSFKELEESELETVIREIPAPSFLIPLPKHLTASSSSLLDHDRTVFQWLDQQPPSSVLYVSFGSTSEVDEKDFLETARGLVDSKQSFLWVVRPGFVKGSTWVEPLPDGFLGERGRIVKWVPQQEVLAHGAIGAFWTHSGWNSTLESVCEGVPMLFRDFGLDQPLNARYMSDVLKVGVQLENGWERGEIANAIRRVMVDEEGEYIRQNARVLKEKADVSLMKGGSSYESLESLVSYISSL
For the molecule B6, the “conversion Reb D to Reb M after 24 h” value was determined as 0.6% and the initial rate is 9.6E+04 Reb M area/min.

B7: UGT76G1var73: UGT76G1 variant, mutations F22Y_D301N_R334H_Q342E_V396F (protein, UniProt Q6VAB4 1-458, looked up, variant F22Y D301N R334H Q342E V396F)
UDP-glycosyltransferase 76G1: MENKTETTVRRRRRIILFPVPYQGHINPILQLANVLYSKGFSITIFHTNFNKPKTSNYPHFTFRFILDNDPQDERISNLPTHGPLAGMRIPIINEHGADELRRELELLMLASEEDEEVSCLITDALWYFAQSVADSLNLRRLVLMTSSLFNFHAHVSLPQFDELGYLDPDDKTRLEEQASGFPMLKVKDIKSAYSNWQILKEILGKMIKQTKASSGVIWNSFKELEESELETVIREIPAPSFLIPLPKHLTASSSSLLDHDRTVFQWLDQQPPSSVLYVSFGSTSEVDEKDFLEIARGLVNSKQSFLWVVRPGFVKGSTWVEPLPDGFLGERGHIVKWVPQEEVLAHGAIGAFWTHSGWNSTLESVCEGVPMIFSDFGLDQPLNARYMSDVLKVGFYLENGWERGEIANAIRRVMVDEEGEYIRQNARVLKQKADVSLMKGGSSYESLESLVSYISSL
For the molecule B7, the “conversion Reb D to Reb M after 24 h” value turned out to be 0.8% and the initial rate turned out to be 8.7E+05 Reb M area/min.

B8: UGT76G1var75: UGT76G1 variant, mutations F41L_A239I_Q266S_S375M_P382M (protein, UniProt Q6VAB4 1-458, looked up, variant F41L A239I Q266S S375M P382M)
UDP-glycosyltransferase 76G1: MENKTETTVRRRRRIILFPVPFQGHINPILQLANVLYSKGLSITIFHTNFNKPKTSNYPHFTFRFILDNDPQDERISNLPTHGPLAGMRIPIINEHGADELRRELELLMLASEEDEEVSCLITDALWYFAQSVADSLNLRRLVLMTSSLFNFHAHVSLPQFDELGYLDPDDKTRLEEQASGFPMLKVKDIKSAYSNWQILKEILGKMIKQTKASSGVIWNSFKELEESELETVIREIPIPSFLIPLPKHLTASSSSLLDHDRTVFSWLDQQPPSSVLYVSFGSTSEVDEKDFLEIARGLVDSKQSFLWVVRPGFVKGSTWVEPLPDGFLGERGRIVKWVPQQEVLAHGAIGAFWTHSGWNSTLESVCEGVPMIFMDFGLDQMLNARYMSDVLKVGVYLENGWERGEIANAIRRVMVDEEGEYIRQNARVLKQKADVSLMKGGSSYESLESLVSYISSL
As to B8, the “conversion Reb D to Reb M after 24 h” value is listed as 0.8% and the initial rate is given as −1.3E+05 Reb M area/min.

B9: UGT76G1var71: UGT76G1 variant, mutations I295M_V300A_K393G_Q432E (protein, UniProt Q6VAB4 1-458, looked up, variant I295M V300A K393G Q432E)
UDP-glycosyltransferase 76G1: MENKTETTVRRRRRIILFPVPFQGHINPILQLANVLYSKGFSITIFHTNFNKPKTSNYPHFTFRFILDNDPQDERISNLPTHGPLAGMRIPIINEHGADELRRELELLMLASEEDEEVSCLITDALWYFAQSVADSLNLRRLVLMTSSLFNFHAHVSLPQFDELGYLDPDDKTRLEEQASGFPMLKVKDIKSAYSNWQILKEILGKMIKQTKASSGVIWNSFKELEESELETVIREIPAPSFLIPLPKHLTASSSSLLDHDRTVFQWLDQQPPSSVLYVSFGSTSEVDEKDFLEMARGLADSKQSFLWVVRPGFVKGSTWVEPLPDGFLGERGRIVKWVPQQEVLAHGAIGAFWTHSGWNSTLESVCEGVPMIFSDFGLDQPLNARYMSDVLGVGVYLENGWERGEIANAIRRVMVDEEGEYIRQNARVLKEKADVSLMKGGSSYESLESLVSYISSL
Molecule B9 yielded an initial rate of 2.1E+07 Reb M area/min.

B10: UGT76G1var4: UGT76G1 variant, mutations E224D_E231A_F265I (protein, UniProt Q6VAB4 1-458, looked up, variant E224D E231A F265I)
UDP-glycosyltransferase 76G1: MENKTETTVRRRRRIILFPVPFQGHINPILQLANVLYSKGFSITIFHTNFNKPKTSNYPHFTFRFILDNDPQDERISNLPTHGPLAGMRIPIINEHGADELRRELELLMLASEEDEEVSCLITDALWYFAQSVADSLNLRRLVLMTSSLFNFHAHVSLPQFDELGYLDPDDKTRLEEQASGFPMLKVKDIKSAYSNWQILKEILGKMIKQTKASSGVIWNSFKDLEESELATVIREIPAPSFLIPLPKHLTASSSSLLDHDRTVIQWLDQQPPSSVLYVSFGSTSEVDEKDFLEIARGLVDSKQSFLWVVRPGFVKGSTWVEPLPDGFLGERGRIVKWVPQQEVLAHGAIGAFWTHSGWNSTLESVCEGVPMIFSDFGLDQPLNARYMSDVLKVGVYLENGWERGEIANAIRRVMVDEEGEYIRQNARVLKQKADVSLMKGGSSYESLESLVSYISSL
Molecule B10 had an initial rate of 8.6E+06 Reb M area/min.
